Test results reported in article PMC2809820.

T1: Ets-1 (rhEts-1) (human, UniProt P14921 1-441)
T1 sequence: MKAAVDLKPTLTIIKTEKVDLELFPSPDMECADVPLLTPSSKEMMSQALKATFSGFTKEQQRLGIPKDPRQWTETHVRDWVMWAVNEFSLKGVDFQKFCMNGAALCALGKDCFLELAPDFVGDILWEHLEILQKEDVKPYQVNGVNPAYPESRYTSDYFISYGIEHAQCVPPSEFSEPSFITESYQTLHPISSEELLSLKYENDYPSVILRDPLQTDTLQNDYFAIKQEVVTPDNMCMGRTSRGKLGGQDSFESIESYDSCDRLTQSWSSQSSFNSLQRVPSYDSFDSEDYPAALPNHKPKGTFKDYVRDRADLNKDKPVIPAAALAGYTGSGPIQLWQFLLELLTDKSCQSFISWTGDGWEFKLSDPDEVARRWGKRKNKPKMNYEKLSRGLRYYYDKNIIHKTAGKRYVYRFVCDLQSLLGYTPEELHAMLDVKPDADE

B1: IL4P.1 (dsDNA)
DNA 1: GATTTCACAGGAACATTTTAC
DNA 2: GTAAAATGTTCCTGTGAAATC
B2: IL4P.2 (dsDNA)
DNA 1: TTTTCTCCTGGAAGAGAGGTG
DNA 2: CACCTCTCTTCCAGGAGAAAA
B3: RHS5 (dsDNA)
DNA 1: GGTAACACAGGAAGTCAGCAG
DNA 2: CTGCTGACTTCCTGTGTTACC
B4: SC1_ETS1 (dsDNA)
DNA 1: CGGCCAAGCCGGAAGTGAGTGCC
DNA 2: GGCACTCACTTCCGGCTTGGCCG
B5: IL13P (dsDNA)
DNA 1: GTTCGGGGAGGAAGTGGGTAG
DNA 2: CTACCCACTTCCTCCCCGAAC

Assays:
Ets-1 (rhEts-1) [1] = target: T1, Ets-1 (rhEts-1); test: competition
Ets-1 (rhEts-1) [2] = target: T1, Ets-1 (rhEts-1); test: competition; remark: listed apart in the source
Ets-1 (rhEts-1) [3] = target: T1, Ets-1 (rhEts-1); test: EMSA

Binder | binding result (Ets-1 (rhEts-1) [1]) | binding result (Ets-1 (rhEts-1) [2]) | also measured
B1 | no binding | – | –
B2 | no binding | – | –
B3 | – | binds | –
B4 | – | – | binding result (Ets-1 (rhEts-1) [3]): binds
B5 | – | binds | –
